According to the Human Domainome abundance scans (Beltran et al. 2025):
± gives the uncertainty stated by the source.

B1: POU domain, class 2, transcription factor 3, residues 186 to 260; numbered along this chain, Q9UKI9 (parent)
chain: SDLEELEKFAKTFKQRRIKLGFTQGDVGLAMGKLYGNDFSQTTISRFEALNLSFKNMCKLKPLLEKWLNDAESSP

Variants of: B1
Assay: abundance fitness (aPCA) (normalised: wild type 0, dead -1); higher = more abundant; growth selection in yeast, the domain comes from the species named
Conditions: Homo sapiens

Row | Variant | abundance fitness
1 | SDLEELEKFAKTFKQRRIKLGFTQGDVGLAMGKLYGNDFSQTTISRFEALNLSFKNTCKLKPLLEKWLNDAESSP [M57T] | -0.25 ± 0.042
2 | SDLEELEKFAKTFKQRRIKLGFTQGDVGLAMGKLYGNDFSQTTISRFEALNLSFKNLCKLKPLLEKWLNDAESSP [M57L] | -0.021 ± 0.033
3 | SDLEELEKFAKTFKQRRIKLGFTQGDVGLAMGKLYGNDFSQTTISRFEALNLSFKNYCKLKPLLEKWLNDAESSP [M57Y] | -0.496 ± 0.12
4 | SDLEELEKFAKTFKQRRIKLGFTQGDVGLAMGKLYGNDFSQTTISRFEALNLSFKNPCKLKPLLEKWLNDAESSP [M57P] | -0.8 ± 0.12
5 | SDLEELEKFAKTFKQRRIKLGFTQGDVGLAMGKLYGNDFSQTTISRFEALNLSFKNNCKLKPLLEKWLNDAESSP [M57N] | -0.167 ± 0.095
6 | SDLEELEKFAKTFKQRRIKLGFTQGDVGLAMGKLYGNDFSQTTISRFEALNLSFKNRCKLKPLLEKWLNDAESSP [M57R] | -0.608 ± 0.044
7 | SDLEELEKFAKTFKQRRIKLGFTQGDVGLAMGKLYGNDFSQTTISRFEALNLSFKNVCKLKPLLEKWLNDAESSP [M57V] | -0.202 ± 0.034
8 | SDLEELEKFAKTFKQRRIKLGFTQGDVGLAMGKLYGNDFSQTTISRFEALNLSFKNWCKLKPLLEKWLNDAESSP [M57W] | -0.27 ± 0.043
9 | SDLEELEKFAKTFKQRRIKLGFTQGDVGLAMGKLYGNDFSQTTISRFEALNLSFKNSCKLKPLLEKWLNDAESSP [M57S] | -0.02 ± 0.047
10 | SDLEELEKFAKTFKQRRIKLGFTQGDVGLAMGKLYGNDFSQTTISRFEALNLSFKNQCKLKPLLEKWLNDAESSP [M57Q] | -0.318 ± 0.077
11 | SDLEELEKFAKTFKQRRIKLGFTQGDVGLAMGKLYGNDFSQTTISRFEALNLSFKNMTKLKPLLEKWLNDAESSP [C58T] | -0.09 ± 0.054
12 | SDLEELEKFAKTFKQRRIKLGFTQGDVGLAMGKLYGNDFSQTTISRFEALNLSFKNMFKLKPLLEKWLNDAESSP [C58F] | 0.005 ± 0.06
13 | SDLEELEKFAKTFKQRRIKLGFTQGDVGLAMGKLYGNDFSQTTISRFEALNLSFKNMLKLKPLLEKWLNDAESSP [C58L] | -0.02 ± 0.033
14 | SDLEELEKFAKTFKQRRIKLGFTQGDVGLAMGKLYGNDFSQTTISRFEALNLSFKNMMKLKPLLEKWLNDAESSP [C58M] | -0.005 ± 0.045
15 | SDLEELEKFAKTFKQRRIKLGFTQGDVGLAMGKLYGNDFSQTTISRFEALNLSFKNMDKLKPLLEKWLNDAESSP [C58D] | -0.04 ± 0.051
16 | SDLEELEKFAKTFKQRRIKLGFTQGDVGLAMGKLYGNDFSQTTISRFEALNLSFKNMNKLKPLLEKWLNDAESSP [C58N] | -0.005 ± 0.067
17 | SDLEELEKFAKTFKQRRIKLGFTQGDVGLAMGKLYGNDFSQTTISRFEALNLSFKNMHKLKPLLEKWLNDAESSP [C58H] | -0.052 ± 0.13
18 | SDLEELEKFAKTFKQRRIKLGFTQGDVGLAMGKLYGNDFSQTTISRFEALNLSFKNMPKLKPLLEKWLNDAESSP [C58P] | -0.474 ± 0.083
19 | SDLEELEKFAKTFKQRRIKLGFTQGDVGLAMGKLYGNDFSQTTISRFEALNLSFKNMKKLKPLLEKWLNDAESSP [C58K] | -0.058 ± 0.068

Row | Variant | abundance fitness
20 | SDLEELEKFAKTFKQRRIKLGFTQGDVGLAMGKLYGNDFSQTTISRFEALNLSFKNMWKLKPLLEKWLNDAESSP [C58W] | 0.032 ± 0.035
21 | SDLEELEKFAKTFKQRRIKLGFTQGDVGLAMGKLYGNDFSQTTISRFEALNLSFKNMAKLKPLLEKWLNDAESSP [C58A] | 0.027 ± 0.036
22 | SDLEELEKFAKTFKQRRIKLGFTQGDVGLAMGKLYGNDFSQTTISRFEALNLSFKNMSKLKPLLEKWLNDAESSP [C58S] | 0.026 ± 0.037
23 | SDLEELEKFAKTFKQRRIKLGFTQGDVGLAMGKLYGNDFSQTTISRFEALNLSFKNMIKLKPLLEKWLNDAESSP [C58I] | 0.01 ± 0.055
24 | SDLEELEKFAKTFKQRRIKLGFTQGDVGLAMGKLYGNDFSQTTISRFEALNLSFKNMGKLKPLLEKWLNDAESSP [C58G] | -0.031 ± 0.029
25 | SDLEELEKFAKTFKQRRIKLGFTQGDVGLAMGKLYGNDFSQTTISRFEALNLSFKNMEKLKPLLEKWLNDAESSP [C58E] | -0.039 ± 0.046
26 | SDLEELEKFAKTFKQRRIKLGFTQGDVGLAMGKLYGNDFSQTTISRFEALNLSFKNMRKLKPLLEKWLNDAESSP [C58R] | 0 ± 0.028
27 | SDLEELEKFAKTFKQRRIKLGFTQGDVGLAMGKLYGNDFSQTTISRFEALNLSFKNMVKLKPLLEKWLNDAESSP [C58V] | -0.019 ± 0.033
28 | SDLEELEKFAKTFKQRRIKLGFTQGDVGLAMGKLYGNDFSQTTISRFEALNLSFKNMCPLKPLLEKWLNDAESSP [K59P] | -0.733 ± 0.081
29 | SDLEELEKFAKTFKQRRIKLGFTQGDVGLAMGKLYGNDFSQTTISRFEALNLSFKNMCHLKPLLEKWLNDAESSP [K59H] | -0.015 ± 0.21
30 | SDLEELEKFAKTFKQRRIKLGFTQGDVGLAMGKLYGNDFSQTTISRFEALNLSFKNMCNLKPLLEKWLNDAESSP [K59N] | -0.026 ± 0.061
31 | SDLEELEKFAKTFKQRRIKLGFTQGDVGLAMGKLYGNDFSQTTISRFEALNLSFKNMCILKPLLEKWLNDAESSP [K59I] | -0.037 ± 0.1
32 | SDLEELEKFAKTFKQRRIKLGFTQGDVGLAMGKLYGNDFSQTTISRFEALNLSFKNMCFLKPLLEKWLNDAESSP [K59F] | 0.06 ± 0.065
33 | SDLEELEKFAKTFKQRRIKLGFTQGDVGLAMGKLYGNDFSQTTISRFEALNLSFKNMCMLKPLLEKWLNDAESSP [K59M] | -0.056 ± 0.043
34 | SDLEELEKFAKTFKQRRIKLGFTQGDVGLAMGKLYGNDFSQTTISRFEALNLSFKNMCELKPLLEKWLNDAESSP [K59E] | 0.053 ± 0.037
35 | SDLEELEKFAKTFKQRRIKLGFTQGDVGLAMGKLYGNDFSQTTISRFEALNLSFKNMCDLKPLLEKWLNDAESSP [K59D] | -0.039 ± 0.055
36 | SDLEELEKFAKTFKQRRIKLGFTQGDVGLAMGKLYGNDFSQTTISRFEALNLSFKNMCGLKPLLEKWLNDAESSP [K59G] | -0.086 ± 0.027
37 | SDLEELEKFAKTFKQRRIKLGFTQGDVGLAMGKLYGNDFSQTTISRFEALNLSFKNMCALKPLLEKWLNDAESSP [K59A] | -0.013 ± 0.03
